Changes are numbered by the printed parent chain. Like-named read-outs stand apart in the source and are kept apart here.
T1: human CD16b (NA1), full length, on FlpinCHO cells (human, UniProt O75015 17-200)
T1 construct: also called FlpinCHO-human CD16b (NA1)
T1 chain: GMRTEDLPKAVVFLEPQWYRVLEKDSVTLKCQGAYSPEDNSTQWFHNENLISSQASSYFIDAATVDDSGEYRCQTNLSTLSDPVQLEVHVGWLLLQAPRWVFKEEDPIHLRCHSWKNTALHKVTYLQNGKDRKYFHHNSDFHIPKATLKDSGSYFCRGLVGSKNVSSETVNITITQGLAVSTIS

T2: human CD16b (NA2), full length, on FlpinCHO cells (human, UniProt O75015 17-200)
T2 construct: also called FlpinCHO-human CD16b (NA2)
T2 chain: T1 chain with R20S, N49S, D66N, V90I

T3: Human CD16b (NA1)-his (human)
T3 construct: entry holds ECD, linker, His tag and AVI tag
T3 chain: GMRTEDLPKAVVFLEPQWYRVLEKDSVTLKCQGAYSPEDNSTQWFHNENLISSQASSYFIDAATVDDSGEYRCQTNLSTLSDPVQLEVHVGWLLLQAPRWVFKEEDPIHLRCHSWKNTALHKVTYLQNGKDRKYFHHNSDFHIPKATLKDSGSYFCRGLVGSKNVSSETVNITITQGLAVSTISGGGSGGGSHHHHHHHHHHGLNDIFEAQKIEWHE

B1: VHH01 VHH-Fc antibody (Fc fusion)
chain: QVQLVESGGGLVQAGGSLRLSCVASRSTLTTYAVRWYRQAPGKQREWVAFISVDGNTNYPDSVKGRFIVSRDNAKNTVYLQMNSLKPEDTADYICRAGGQYWGQGTQVTVSSEPKSSDKTHTCPPCPAPEFEGGPSVFLFPPKPKDTLMISRTPEVTCVVVAVSHEDPEVKFNWYVDGVEVHNAKTKPREEQYNSTYRVVSVLTVLHQDWLNGKEYKCKVSNKALPAPIEKTISKAKGQPREPQVYTLPPSREEMTKNQVSLTCLVKGFYPSDIAVEWESNGQPENNYKTTPPVLDSDGSFFLYSKLTVDKSRWQQGNVFSCSVMHEALHNHYTQKSLSLSPGK
B2: VHH06-06 humanized VHH-Fc antibody (Fc fusion)
chain: EVQLVESGGGVVQPGGSLRLSCAASGSTWTTYAVRWYRQAPGKQREWVAFISVDGSTNYADSVKGRFTVSRDNSKNTVYLQMNSLRAEDTADYICRVGGQYWGQGTMVTVSSEPKSSDKTHTCPPCPAPEEFGGPSVFLFPPKPKDTLMISRTPEVTCVVVAVSHEDPEVKFNWYVDGVEVHNAKTKPREEQYNSTYRVVSVLTVLHQDWLNGKEYKCKVSNKALPAPIEKTISKAKGQPREPQVYTLPPSREEMTKNQVSLTCLVKGFYPSDIAVEWESNGQPENNYKTTPPVLDSDGSFFLYSKLTVDKSRWQQGNVFSCSVMHEALHNHYTQKSLSLSPGK
B3: VHH06-07 humanized VHH-Fc antibody (Fc fusion)
chain: B2 chain with V69I, M107Q
B4: VHH04 VHH-Fc antibody (Fc fusion)
chain: B1 chain with A24G, R26S, S84N

How the values were obtained:
[1] = target: T4, human CD16a (158F), full length, on FlpinCHO cells (human, UniProt P08637 17-254); test: FACS on FlpinCHO cells
Protocol: (§1) The required cells were scale-up cultured in a T-75 cell culture flask to the logarithmic growth phase. The medium was aspirated, and the cells were washed twice with a PBS buffer and then digested with trypsin. After the digestion was terminated, the cells were washed twice with the PBS buffer. The cells were counted, and then the cell pellet was resuspended with a [PBS+2% (w/w) BSA] blocking solution to 2×10⁶ cells/ml, and added to a 96-well FACS reaction plate at 50 μl/well. […] 50 μl/well of the antibody to be detected was added at different concentrations, and incubated on ice for 1 hour. […] The mixture was centrifuged and washed 5 times with PBS, and FACS (FACS Canto II, purchased from BD Company) was used for detection and result analysis. Data analysis was performed by software (CellQuest) to obtain the mean fluorescence intensity (MFI) of the cells. Then, software (GraphPad Prism8) was used for analysis, data fitting and EC50 value calculation.

[2] = target: T5, human CD16a (158V), full length, on cells (human, UniProt P08637 17-254); test: FACS on FlpinCHO cells
T5 construct: also used as target for the bought Jurkat-NFAT reporter line stably expressing human CD16a (158V); also called FlpinCHO-human CD16a (158V); FlpinCHO-CD16a (158V)
Protocol: as §1

[3] = target: T1, human CD16b (NA1), full length, on …; test: FACS on FlpinCHO cells
Protocol: as §1
(§2) The binding of an antibody to be detected to FlpinCHO-human CD16b cells was detected according to the method of Example 3.1.

[4] = target: T2, human CD16b (NA2), full length, on …; test: FACS on FlpinCHO cells
Protocol: as §1, §2

[5] = target: T5, human CD16a (158V), full length, on …; test: cell-based or functional assay
[6] = target: T4, human CD16a (158F), full length, on …; test: FACS, biotinylated antibody
Protocol: as §1, with “The” for “The required cells were scale-up cultured in a T-75 cell culture flask to the logarithmic growth phase. The”
(§3) An antibody to be detected was labeled in advance according to the instructions of a biotin labeling kit (EZ-Link™ NHS-PEG4 Biotinylation Kit, purchased from Thermofisher Scientific, catalog number: 21455). […] Detection was performed according to the method of Example 3.1, wherein the biotinylated antibody was detected with fluorescein APC-labeled Streptavidin (High Concentration) (purchased from Biolegend, catalog number: 405243).

[7] = target: T5, human CD16a (158V), full length, on …; test: FACS, biotinylated antibody
Protocol: as §1, with “The” for “The required cells were scale-up cultured in a T-75 cell culture flask to the logarithmic growth phase. The”
as §3

Human CD16a (158F)-his = target: T6, Human CD16a (158F)-his (human); test: SPR (Biacore), antibody captured on Protein A
T6 construct: entry holds ECD, AVI tag, linker and His tag
Protocol: (§4) A sample buffer and a running buffer were HBS-EP+ (10 mM HEPES, 150 mM NaCl, 3 mM EDTA and 0.05% surfactant P20) (GE Healthcare; BR-1006-69). The flow-through cell was set to 25° C. The sample block was set to 16° C. Both were pretreated with the running buffer. In each cycle, an antibody to be detected was first captured with a Protein A chip, and then a single concentration of CD16 antigen protein was injected. The binding and dissociation processes of the antibody and the antigen protein were recorded, and finally Glycine pH 1.5 (GE Healthcare; BR-1003-54) was used to complete chip regeneration. Binding was measured by injecting different concentrations of recombinant human CD16-ECD his proteins in a solution for 240 s with a flow rate of 30 μL/min, wherein a total of 5 concentrations were prepared by using 200 nM as a starting concentration (see the detailed results for the actual concentration in the test) and performing a 1:1 dilution. The dissociation phase was monitored for up to 600 s and was triggered by switching from a sample solution to a running buffer. The surface was regenerated by washing with a 10 mM glycine solution (pH 1.5) for 30 s at a flow rate of 30 μL/min. Bulk refractive index difference was corrected by subtracting the response obtained from the goat anti-human Fc surface. Blank injection was also subtracted (=double reference). For calculation of apparent KD and other kinetic parameters, Langmuir 1:1 model was used.

Human CD16a (158V)-his = target: T7, Human CD16a (158V)-his (human); test: SPR (Biacore), antibody captured on Protein A
T7 construct: entry holds ECD, AVI tag, linker and His tag
Protocol: as §4

Human CD16b (NA1)-his = target: T3, Human CD16b (NA1)-his; test: SPR (Biacore), antibody captured on Protein A
Protocol: as §4

[8] = target: T4, human CD16a (158F), full length, on …; test: FACS, biotinylated antibody, +10 mg/mL human immunoglobulin
Protocol: as §1, with “The” for “The required cells were scale-up cultured in a T-75 cell culture flask to the logarithmic growth phase. The”
as §3

[9] = target: T5, human CD16a (158V), full length, on …; test: as above
Protocol: as §1, with “The” for “The required cells were scale-up cultured in a T-75 cell culture flask to the logarithmic growth phase. The”
as §3

[10] = target: T4, human CD16a (158F), full length, on …; test: FACS on FlpinCHO cells; remark: listed apart in the source
Protocol: as §1
(§5) The binding of a humanized antibody to FlpinCHO-human CD16a cells was detected according to the method of Example 3.1.
Target sequence in this assay (P08637 17-254 limits assumed): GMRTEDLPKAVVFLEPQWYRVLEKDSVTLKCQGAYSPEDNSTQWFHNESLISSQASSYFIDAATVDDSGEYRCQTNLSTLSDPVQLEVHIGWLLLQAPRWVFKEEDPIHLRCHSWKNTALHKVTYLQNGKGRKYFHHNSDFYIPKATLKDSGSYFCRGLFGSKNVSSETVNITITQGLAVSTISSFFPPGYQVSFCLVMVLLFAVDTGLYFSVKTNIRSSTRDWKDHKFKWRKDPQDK

[11] = target: T5, human CD16a (158V), full length, on …; test: FACS on FlpinCHO cells; remark: listed apart in the source
Protocol: as §1, §5
Target sequence in this assay (P08637 17-254 F176V limits assumed): as the sequence (P08637 17-254 limits assumed) above, with F160V counted along it

[12] = target: T1, human CD16b (NA1), full length, on …; test: FACS on FlpinCHO cells
Protocol: as §1, §2

[13] = target: T2, human CD16b (NA2), full length, on …; test: FACS on FlpinCHO cells
Protocol: as §1, §2

[14] = target: T5, human CD16a (158V), full length, on …; test: cell-based or functional assay; remark: listed apart in the source
Target sequence in this assay (P08637 17-254 F176V limits assumed): as the sequence (P08637 17-254 limits assumed) above, with F160V counted along it

[15] = target: T8, CD16 on primary human NK cells (human, UniProt P08637 17-254); test: FACS on human NK cells
T8 construct: whole, on cells; also called resting NK cells
Protocol: as §1
The binding of an antibody to be detected to freshly prepared human NK cells (Milestone Biotechnologies, catalog number: PB56-N-Custom) was detected according to the method of Example 3.1.

EC50 [1] | Maximum mean fluorescence intensity [1] | EC50 [2] | Maximum mean fluorescence intensity [2] | EC50 [3] | Maximum mean fluorescence intensity [3] | Maximum mean fluorescence intensity [4] | binding result [4] | EC50, activation activity for Jurkat cell [5] | Maximum fluorescence value [5] | EC50 [6] | Maximum mean fluorescence intensity [6] | EC50 [7] | Maximum mean fluorescence intensity [7] | Kd (Human CD16a (158F)-his) | koff (Human CD16a (158F)-his) | kon (Human CD16a (158F)-his) | Kd (Human CD16a (158V)-his) | koff (Human CD16a (158V)-his) | kon (Human CD16a (158V)-his) | also measured | Binder
0.91 nM | 4010 | 0.47 nM | 5000 | 0.85 nM | 49700 | 95 | no binding (tested: 100 nM) | 0.09 nM | 178000 | 0.56 nM | 4940 | 0.47 nM | 6400 | 108 nM | 0.00831 s⁻¹ | 76600 M⁻¹ s⁻¹ | 27 nM | 0.00373 s⁻¹ | 138000 M⁻¹ s⁻¹ | Kd (Human CD16b (NA1)-his): 95.7 nM; koff (Human CD16b (NA1)-his): 0.0485 s⁻¹; kon (Human CD16b (NA1)-his): 507000 M⁻¹ s⁻¹; EC50 [8]: 1.21 nM; Maximum mean fluorescence intensity [8]: 6850; EC50 [9]: 1.15 nM; Maximum mean fluorescence intensity [9]: 9000 | B1
 |  |  |  |  |  |  |  |  |  |  |  |  |  | 24.6 nM | 0.00116 s⁻¹ | 47100 M⁻¹ s⁻¹ |  |  |  | EC50 [10]: 0.3 nM; Maximum mean fluorescence intensity [10]: 8930; EC50 [11]: 0.28 nM; Maximum mean fluorescence intensity [11]: 8240; EC50 [12]: 0.25 nM; Maximum mean fluorescence intensity [12]: 59800; Maximum mean fluorescence intensity [13]: 204; binding result [13]: no binding (tested: 100 nM); EC50, activation activity for Jurkat cell [14]: 0.01 nM; Maximum fluorescence value [14]: 167000 | B2
 |  |  |  |  |  |  |  |  |  |  |  |  |  | 32.1 nM | 0.00139 s⁻¹ | 43100 M⁻¹ s⁻¹ |  |  |  | EC50 [10]: 0.5 nM; Maximum mean fluorescence intensity [10]: 9160; EC50 [11]: 0.5 nM; Maximum mean fluorescence intensity [11]: 8460; EC50 [12]: 0.33 nM; Maximum mean fluorescence intensity [12]: 53500; Maximum mean fluorescence intensity [13]: 167; binding result [13]: no binding (tested: 100 nM); EC50, activation activity for Jurkat cell [14]: 0.02 nM; Maximum fluorescence value [14]: 173000 | B3
0.66 nM | 7240 | 0.68 nM | 7660 | 1.33 nM | 41400 | 351 | no binding (tested: 100 nM) | 0.03 nM | 161000 | 0.32 nM | 6160 | 0.65 nM | 9200 | 23.4 nM | 0.00128 s⁻¹ | 54700 M⁻¹ s⁻¹ | 8.93 nM | 0.000738 s⁻¹ | 82600 M⁻¹ s⁻¹ | EC50 [15]: 0.74 nM; Maximum mean fluorescence intensity [15]: 2430; Kd (Human CD16b (NA1)-his): 21.6 nM; koff (Human CD16b (NA1)-his): 0.00265 s⁻¹; kon (Human CD16b (NA1)-his): 122000 M⁻¹ s⁻¹; EC50 [8]: 1.51 nM; Maximum mean fluorescence intensity [8]: 7580; EC50 [9]: 1.51 nM; Maximum mean fluorescence intensity [9]: 10400 | B4

— patent US20240343811A1 (SHANDONG SIMCERE BIOPHARMACUTICAL, published 2024)
